# T1: HCII peptide (SEQ ID NO:24), modeled on the tyrosine sulfation site in heparin cofactor II
# T1 chain: EGEEDDDYLDLEKIFC
# T2: C4α peptide (SEQ ID NO:23), modeled on tyrosine sulfation sites in the α chain of the fourth component of complement
# T2 chain: EANEDYEDYEYDELPAC
# Experiments:
# [1] = molecular target: T1, HCII peptide (SEQ ID NO:24), modeled on …
# [2] = molecular target: T2, C4α peptide (SEQ ID NO:23), modeled on …
protein,measurement,setting,value
Human TPST-1-HPC4 fusion protein (protein) MEDQVDPRLIDGKDPVGKLKQNLLLACLVISSVTVFYLGQHAMECHHRIEERSQPVKLESTRTTVRTGLDLKANKTFAYHKDMPLIFIGGVPRSGTTLMRAMLDAHPDIRCGEETRVIPRILALKQMWSRSSKEKIRLDEAGVTDEVLDSAMQAFLLEIIVKHGEPAPYLCNKDPFALKSLTYLSRLFPNAKFLLMVRDGRASVHSMISRKVTIAGFDLNSYRDCLTKWNRAIETMYNQCMEVGYKKCMLVHYEQLVLHPERWMRTLLKFLQIPWNHSVLHHEEMIGKAGGVSLSKVERSTDQVIKPVNVGALSKWVGKIPPDVLQDMAVIAPMLAKLGYDPYANPPNYGKPDPKIIENTRRVYKGEFQLPDFLKEKPQTEQVE,specific activity of TPST-1 extracts relative to TPST-2 extracts assayed in parallel,[1],21-fold higher using the HCII peptide as substrate
same,specific activity of TPST-1 extracts relative to TPST-2 extracts assayed in parallel,[2],9-fold higher using the C4α peptide

# — patent publication US20030170849
